From the supplement of paper PMC7125110
± gives the standard error. This sample holds only a part of the variants without activity.

B1: glmS ribozyme (parent)
chain: AUAAAAGCGCCAGAACUACAGAAAUGUAGUUGACGAGGAGGAGGUUUAUCGAAUUUUCGGCGGAUGCCUCCAAA

Variants of: B1
Assay: self-cleavage kobs at 10000 uM GlcN6P; higher = faster cleavage; RNA array
Details: with glucosamine-6-phosphate
Procedure, shortened: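 Glucosamine-6-phosphate (40 μM to 10 mM) in HEPES/KCl/Mg(OAc)2 buffer was flowed over sequenced MiSeq chips, and tiles were imaged over ~14 h. Barcoded ribozyme variants there had been transcribed in situ by E. coli RNA polymerase and were tracked through a hybridised Cy3 probe at 37 °C. One- or two-exponential decay fits to per-tile medians, normalised to baseline and to non-cleaving reference variants, gave kobs. kcat and KM came from weighted Michaelis–Menten fits across concentrations.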

Going from A48U C50G to U31G U47C U54A, the “self-cleavage kobs at 10000 uM GlcN6P” value rises from less than 1e-05 s⁻¹ to 0.00049 ± 8.9e-05 s⁻¹.

A33G G37A U69G and U30A C61A cannot be ordered by “self-cleavage kobs at 10000 uM GlcN6P” value: less than 1e-05 s⁻¹ for the first, less than 1e-05 s⁻¹ for the second.

A36C A48U G63A and U45A G62A cannot be ordered by “self-cleavage kobs at 10000 uM GlcN6P” value: less than 1e-05 s⁻¹ for the first, less than 1e-05 s⁻¹ for the second.

First: G43U U65G C68U
Second: A42G C58A C67U
The “self-cleavage kobs at 10000 uM GlcN6P” value of the first is 16-fold higher: 0.0019 ± 0.00044 s⁻¹ for the first, 0.00012 ± 1.9e-05 s⁻¹ for the second.

First: C34A C58G C68G
Second: U47A G59A C71U
The “self-cleavage kobs at 10000 uM GlcN6P” value of the first is 9-fold higher: 0.000608 ± 0.00016 s⁻¹ for the first, 6.73e-05 ± 2.5e-05 s⁻¹ for the second.

First: G35U U47A C61U
Second: G37C A64G C70U
The “self-cleavage kobs at 10000 uM GlcN6P” value of the first is lower: less than 1e-05 s⁻¹ for the first, 4.49e-05 ± 1.6e-05 s⁻¹ for the second.

Going from G32C C68G C71G to G51U A53U G60U C70U, the “self-cleavage kobs at 10000 uM GlcN6P” value falls from 0.000123 ± 2.3e-05 s⁻¹ to less than 1e-05 s⁻¹.

U46A G62C C71U and U49A C50G G51A C61A G62U cannot be ordered by “self-cleavage kobs at 10000 uM GlcN6P” value: less than 1e-05 s⁻¹ for the first, less than 1e-05 s⁻¹ for the second.

First: G32U U57G
Second: A36G U46A C58A
The “self-cleavage kobs at 10000 uM GlcN6P” value of the first is higher: 5.4e-05 ± 1.4e-05 s⁻¹ for the first, less than 1e-05 s⁻¹ for the second.

C50G C67U C68G C71G and G35C G37U C68G are within error of each other in “self-cleavage kobs at 10000 uM GlcN6P” value: 0.000108 ± 2.8e-05 s⁻¹ for the first, 7.56e-05 ± 2.4e-05 s⁻¹ for the second.

A33U A53C G62U and A33U G35C G62U C67U cannot be ordered by “self-cleavage kobs at 10000 uM GlcN6P” value: less than 1e-05 s⁻¹ for the first, less than 1e-05 s⁻¹ for the second.

Going from A48U G62C C67G to U31A A42G U46C, the “self-cleavage kobs at 10000 uM GlcN6P” value rises from less than 1e-05 s⁻¹ to 0.000411 ± 9.2e-05 s⁻¹.

U30G G37U A52U G59A and G60A C68U C70U cannot be ordered by “self-cleavage kobs at 10000 uM GlcN6P” value: less than 1e-05 s⁻¹ for the first, less than 1e-05 s⁻¹ for the second.

C34U G44U U54A G63C and G35C A42G U45G cannot be ordered by “self-cleavage kobs at 10000 uM GlcN6P” value: less than 1e-05 s⁻¹ for the first, less than 1e-05 s⁻¹ for the second.

A36C G37C A53U U69C and A53G G63C cannot be ordered by “self-cleavage kobs at 10000 uM GlcN6P” value: less than 1e-05 s⁻¹ for the first, less than 1e-05 s⁻¹ for the second.

Going from A33C U46G A52U to G40C U45A U49G, the “self-cleavage kobs at 10000 uM GlcN6P” value rises from less than 1e-05 s⁻¹ to 5.2e-05 ± 1.9e-05 s⁻¹.

G40U G43U U54C and U31G G38C G40C G60C U69A C71A cannot be ordered by “self-cleavage kobs at 10000 uM GlcN6P” value: less than 1e-05 s⁻¹ for the first, less than 1e-05 s⁻¹ for the second.

A52C C67A and U46C C68A are within error of each other in “self-cleavage kobs at 10000 uM GlcN6P” value: 2.55e-05 ± 1.1e-05 s⁻¹ for the first, 3.47e-05 ± 1e-05 s⁻¹ for the second.

Compared with U30A A48G C68A, U56G A64U C70U is higher in “self-cleavage kobs at 10000 uM GlcN6P” value: less than 1e-05 s⁻¹ for the first, 4.79e-05 ± 1.2e-05 s⁻¹ for the second.

G44A U45A C58G and A33U U45A U55C C71U cannot be ordered by “self-cleavage kobs at 10000 uM GlcN6P” value: less than 1e-05 s⁻¹ for the first, less than 1e-05 s⁻¹ for the second.

G51A A52U G59A and G35U G41U C67G cannot be ordered by “self-cleavage kobs at 10000 uM GlcN6P” value: less than 1e-05 s⁻¹ for the first, less than 1e-05 s⁻¹ for the second.

Going from U30C U55C C70U to U31A G66C, the “self-cleavage kobs at 10000 uM GlcN6P” value rises from 8.64e-05 ± 1.7e-05 s⁻¹ to 0.000307 ± 9.3e-05 s⁻¹ (3.6-fold).

Going from C50U A53U G59C U65A to C34A A36C G37U U69G, the “self-cleavage kobs at 10000 uM GlcN6P” value rises from less than 1e-05 s⁻¹ to 0.000153 ± 3.2e-05 s⁻¹.

G35C G59A C61U and G29C C34U G38A C71U cannot be ordered by “self-cleavage kobs at 10000 uM GlcN6P” value: less than 1e-05 s⁻¹ for the first, less than 1e-05 s⁻¹ for the second.

Going from U31C U45A A52G C68U to A39U U46A A53G, the “self-cleavage kobs at 10000 uM GlcN6P” value rises from 0.000129 ± 3.8e-05 s⁻¹ to 0.00108 ± 0.00026 s⁻¹ (8.4-fold).

Going from G32A U47G A52G C61G C71G to A33C G37U C70G, the “self-cleavage kobs at 10000 uM GlcN6P” value falls from 6.89e-05 ± 2.1e-05 s⁻¹ to less than 1e-05 s⁻¹.

First: G32C U54A U56G
Second: G40C G59C U65G
The “self-cleavage kobs at 10000 uM GlcN6P” value of the first is higher: 3.42e-05 ± 1.1e-05 s⁻¹ for the first, less than 1e-05 s⁻¹ for the second.

First: G60C A64G U65G
Second: A36U G40A G43C A52G
The “self-cleavage kobs at 10000 uM GlcN6P” value of the first is lower: less than 1e-05 s⁻¹ for the first, 0.00106 ± 0.00036 s⁻¹ for the second.

G29A C58U and G29A C58G are within error of each other in “self-cleavage kobs at 10000 uM GlcN6P” value: 4.95e-05 ± 8.6e-06 s⁻¹ for the first, 6.15e-05 ± 1.1e-05 s⁻¹ for the second.

With U45A A53G U55A U65A C67A the “self-cleavage kobs at 10000 uM GlcN6P” value was 0.000759 ± 0.00025 s⁻¹.
